Measurements taken from patent US20230235070A1 (Pfizer, published 2023).

Biological target: T1, TNF-like ligand 1A (TL1A) (human, UniProt O95150 72-251)
T1 construct: Endogenous protein measured in patients' serum and biopsies by immunoprecipitation LC-MS/MS; also called TNFSF15; soluble TL1A
T1 sequence (looked up): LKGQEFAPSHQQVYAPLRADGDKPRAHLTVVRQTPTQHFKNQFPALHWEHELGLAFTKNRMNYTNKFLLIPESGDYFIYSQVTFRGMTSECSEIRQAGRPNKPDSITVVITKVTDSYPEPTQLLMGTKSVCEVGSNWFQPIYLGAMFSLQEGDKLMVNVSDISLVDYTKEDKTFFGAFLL
Test: total soluble TL1A in serum of treated participants, immunoprecipitation LC-MS/MS (in vivo target engagement)
Description: An Immunoprecipitation LC-MS/MS assay has been developed and validated to measure total soluble TL1A in human serum. Total soluble TL1A is isolated from human serum using immuno-enrichment technology. The samples are incubated and shaken with a biotinylated anti-TL1A capture reagent at 4° C. overnight. Dynabeads MyOne C1 streptavidin-coupled magnetic beads are then added to each sample and incubated at room temperature for 1 h to extract TL1A bound to biotinylated capture antibody. The beads are then washed three times, followed by elution of total TL1A from the beads under acidic conditions. After addition of the extended sequence stable isotope labeled peptide (internal standard) to each sample, trypsin digestion is performed at 37° C. overnight. All sample processing is performed in a 96-well format on an automated liquid handling robot (Microlab STAR, Hamilton, Bonaduz, Switzerland). A 120 μL of the sample extract is injected onto a three-dimensional Dionex Ultimate 3000 nano-LC system, comprising a conventional flow immunoaffinity capture with custom 2.1 mm ID anti-peptide antibody column, and elution to 300 μm ID C18 trap column and 75 μm ID nano LC analytical column. […] One selected reaction monitoring transition for the signature peptide is used to quantify TL1A in the positive ion mode, and all data are normalized to the internal standard response. […]

binding result: binds
B1: PF-06480605 (antibody, human IgG1, kappa, V domains shown)
VH: QVQLVQSGAEVKKPGASVKVSCKASGYDFTYYGISWVRQAPGQGLEWMGWISTYNGNTHYARMLQGRVTMTTDTSTRTAYMELRSLRSDDTAVYYCARENYYGSGAYRGGMDVWGQGTTVTVSS
VL: EIVLTQSPATLSLSPGERATLSCRASQSVSSYLAWYQQKPGQAPRLLIYDASNRATGIPARFSGSGSGTDFTLTISSLEPEDFAVYYCQQRSNWPWTFGQGTKVEIKR
notes: The embodiments and claims number differently (1 = VH, 2 = VL, 9 = HC, 10 = LC); also called anti-TL1A
